This note sets out measurements from patent publication US20190390204A1.

What all share (assay): cell-based or functional assay
Test [1] addresses LITE 1.9.1 TALE-CIB1 construct (mutated NLS, Δ318-334, AD5 NES).
Test [2] deals with LITE2.0 TALE-CIB1 component.
Test [3] addresses TALE(Ngn2)-NLS-CRY2PHR.

In the case of CRY2PHR-NLS-VP64_2A_GFP, in test [1], the background mRNA increase (no light), LITE1.9.1 was found to be 1.06 fold and the light induction (light/no-light), LITE1.9.1 was determined as 4 fold.
Regarding LITE2.0 CRY2PHR-VP64 component, in test [2], the light induction (light/no-light ratio of Neurog2 expression), LITE2.0 came to 20.4.
Turning to CIB1-NLS-VP64_2A_GFP, in test [3], the Neurog2 expression (qPCR) after 0.5 h of light stimulation, vs YFP samples turned out to be 5 fold and the Neurog2 expression (qPCR), peak at 12 h of light stimulation, vs YFP samples was 19 fold.
